One data set deals with T1, Tk-PTP (Thermococcus kodakarensis, UniProt Q8X270).
T1 construct: recombinant, E. coli BL21(DE3) RIL; codon-optimized gene; wild type in pET28a, N-terminal His6-tag removed by thrombin; mutants in pET21a, Ni-NTA purified; P-loop HC93MGGLGR99
Kind of data set: X-ray crystal structure, […] Å. The format is binding. The settings on record: active site (P-loop); protein heated at 60°C for 3 h with sodium vanadate at 1:3 molar ratio.
As for `[O]=[V]([OH])([OH])[OH]` [vanadate], the “X-ray crystal structure, 1.8 Å” value is given as “Vanadate is anchored in the active site of Tk-PTP(form II)”.

The test system of another data set is Cc1cc(=O)oc2c(F)c(OP(=O)(O)O)c(F)cc12. In words: purified protein. The settings on record: 60°C (active form II), pH 5.0 sodium citrate, 200 mM NaCl, 5 mM dithiothreitol.
Consider “Tk-PTP (Thermococcus kodakarensis KOD1; R124E)”, for which the Km (usually the concentration of substrate that gives half-maximal velocity) worked out at 0.258 ± 0.043 mM and the kcat (in general, the maximal rate divided by the concentration of active sites) came out at 0.188 ± 0.052 s⁻¹.
Consider “Tk-PTP (Thermococcus kodakarensis KOD1; E132Q)”, for which the Km amounted to 0.150 ± 0.062 mM and the kcat was 8.82 ± 0.13 s⁻¹.
With Tk-PTP (Thermococcus kodakarensis KOD1), the Km amounted to 0.276 mM and the kcat came to 30.0 s⁻¹.
On the same counts, the results for “Tk-PTP (Thermococcus kodakarensis KOD1; R124A)” are 0.301 ± 0.109 mM and 1.59 ± 0.65 s⁻¹.
Taken in the same sequence, the figures for “Tk-PTP (Thermococcus kodakarensis KOD1; E132A)” were 0.0230 ± 0.0084 mM and 3.83 ± 0.14 s⁻¹.
“Tk-PTP (Thermococcus kodakarensis KOD1; D63N)”: the Km stood at 0.252 ± 0.050 mM and the kcat amounted to 2.92 ± 0.15 s⁻¹.
Consider “Tk-PTP (Thermococcus kodakarensis KOD1; D63A)”, for which the Km is recorded as 0.0274 ± 0.0106 mM and the kcat worked out at 1.29 ± 0.047 s⁻¹.
“Tk-PTP (Thermococcus kodakarensis KOD1; G95A)”: the Km came to 0.106 ± 0.010 mM and the kcat stood at 35.8 ± 0.7 s⁻¹.
On the same counts, the results for “Tk-PTP (Thermococcus kodakarensis KOD1; E132L)” are 0.251 ± 0.423 mM and 2.97 ± 0.15 s⁻¹.
Take “Tk-PTP (Thermococcus kodakarensis KOD1; Q136A)”: the Km is reported as 0.135 ± 0.016 mM and the kcat was 0.460 ± 0.015 s⁻¹.

The values are drawn from publication PMC5965843, “Structural study reveals the temperature-dependent conformational flexibility of Tk-PTP, a protein tyrosine phosphatase from Thermococcus kodakaraensis KOD1” (PLoS ONE, 2018).
